From US20230416361A1 (MIROBIO, published 2023) come the findings set out here.

Experiment [1] has as its target T1, soluble cynomolgus macaque CD200R1 extracellular domain (cynomolgus macaque, UniProt G7NZT0 29-266).
T1 construct: extracellular domain; also called Cynomolgus CD200R
T1 sequence: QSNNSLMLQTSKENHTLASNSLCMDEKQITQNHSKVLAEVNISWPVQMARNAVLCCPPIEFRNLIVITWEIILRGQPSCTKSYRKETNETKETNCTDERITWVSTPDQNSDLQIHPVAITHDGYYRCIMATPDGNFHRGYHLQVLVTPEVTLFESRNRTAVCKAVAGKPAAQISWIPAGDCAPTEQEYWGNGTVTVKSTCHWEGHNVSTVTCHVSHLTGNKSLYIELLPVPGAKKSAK
Briefly: SPR, captured antibody, soluble monomeric receptor injected, single cycle kinetics, 37 C. The method, then:
(§1) The binding affinity and kinetics of the CD200R antibodies of the present disclosure to human or cynomolgus CD200R were determined by surface plasmon resonance (SPR) using the Biacore T200 (GE Healthcare). Mouse antibody capture kit (GE Healthcare) was used to coat a Series S CM5 Sensor Chip (GE Healthcare) with polyclonal anti-mouse IgG.
(§2) Anti-CD200R antibody was captured onto the biosensor surface and a negative control antibody (clone Mopc21; Biolegend) captured in the reference channel. Various concentrations of monomeric soluble human CD200R extracellular domain, soluble cynomolgus macaque CD200R1 extracellular domain or soluble cynomolgus macaque CD200RLa (a highly homologous activating receptor) were injected over the immobilized antibodies in the buffer 10 mM Hepes, 150 mM NaCl, 0.005% v/v Surfactant P20, pH 7.4 (HBS-P) at 37° C., in a single cycle kinetics analysis. Association and dissociation rates were fitted using BiaEvaluation Software (GE Healthcare) after reference and blank subtractions, and dissociation constants were calculated (Table 2).
(In general: Surface plasmon resonance follows binding to a sensor surface in real time, without labels.)

For experiment [2], the target named is T2, monomeric soluble human CD200R extracellular domain (human, UniProt Q8TD46 29-265).
T2 construct: extracellular domain; also called hCD200R; monomeric CD200R protein
T2 sequence (looked up): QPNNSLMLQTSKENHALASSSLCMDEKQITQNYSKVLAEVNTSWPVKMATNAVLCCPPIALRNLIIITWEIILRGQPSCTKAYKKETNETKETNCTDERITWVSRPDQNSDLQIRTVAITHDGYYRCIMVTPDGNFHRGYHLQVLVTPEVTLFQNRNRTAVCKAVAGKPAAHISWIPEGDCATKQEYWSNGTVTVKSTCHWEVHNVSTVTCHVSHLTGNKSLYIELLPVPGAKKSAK
The experiment is described as above. The protocol:
as §1, §2

Experiment [3] addresses T3, cyno CD200RLa full length construct on cells (cynomolgus, UniProt A0A2K5W6R0 30-275).
T3 construct: whole, on cells; also called cynomolgus CD200RLa expressed on cells
T3 sequence: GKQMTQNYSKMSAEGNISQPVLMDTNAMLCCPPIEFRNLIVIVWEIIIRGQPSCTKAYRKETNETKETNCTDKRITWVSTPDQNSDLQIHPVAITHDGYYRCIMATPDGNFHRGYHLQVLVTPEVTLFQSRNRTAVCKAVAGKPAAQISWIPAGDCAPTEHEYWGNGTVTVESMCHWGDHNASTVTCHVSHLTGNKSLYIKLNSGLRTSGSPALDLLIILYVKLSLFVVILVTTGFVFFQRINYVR
Description: flow cytometry. The method, then:
(§3) The binding of CD200R antibodies to human and cyno CD200R and CD200RLa constructs was assessed by flow cytometry of transiently transfected cells. CD200RLa has a charged transmembrane (TM) that is not expected to express well in the absence of appropriate binding partners. Therefore, in addition to the full length CD200RLa constructs, chimeric constructs were used consisting of the CD200RLa extracellular domain fused to mouse CD80 transmembrane and intracellular tail to enable cell surface expression.
(§4) HEK293T cells were plated out at 1 million cells per well in a 6 well plate the day before transfection. The following day cells were transfected with CD200R constructs using 2.5 μg plasmid DNA (a pcDNA3.4 vector containing the CD200R construct sequence) and 10 μl Lipofectamine 2000 (mixed in 200 μl Optimem for 5 minutes then added dropwise to cells). 48 hours after transfection, cells were collected by vigorous pipetting in cold PBS and 50,000 cells pelleted per well in 96 well U bottom plates.
Cells were then washed and stained for 30 minutes with a secondary staining mix containing a live/dead marker (Near IR LD, Biolegend cat #423106) and APC anti-hIgG (clone QA19A42, Biolegend cat #366906) or AF647 anti-mIgG1 (clone RMG1-1, cat #406618). As a control, cells were separately stained with the commercial anti-CD200R clone OX108 directly labelled with AF647 (Biolegend cat #329308). […]
For orientation: A flow cytometer gives signals particle by particle.

In experiment [4] the target is T4, human CD200RLa full length construct on HEK293T cells (human, UniProt Q6Q8B3 24-271).
T4 construct: whole, on cells; also called CD200R1L
T4 sequence (looked up): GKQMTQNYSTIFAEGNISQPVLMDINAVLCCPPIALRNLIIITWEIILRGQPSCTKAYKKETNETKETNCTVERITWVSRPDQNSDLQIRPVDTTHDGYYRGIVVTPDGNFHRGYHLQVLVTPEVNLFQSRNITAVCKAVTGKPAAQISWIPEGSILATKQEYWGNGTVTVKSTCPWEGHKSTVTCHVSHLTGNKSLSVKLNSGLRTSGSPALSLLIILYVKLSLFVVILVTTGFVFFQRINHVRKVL
Description: flow cytometry on transiently transfected HEK293T cells. The protocol:
as §3, §4
(§5) Cells were then washed and stained for 30 minutes with a secondary staining mix containing a live/dead marker (Near IR LD, Biolegend cat #423106) and APC anti-hIgG (clone QA19A42, Biolegend cat #366906) or AF647 anti-mIgG1 (clone RMG1-1, cat #406618). As a control, cells were separately stained with the commercial anti-CD200R clone OX108 directly labelled with AF647 (Biolegend cat #329308). Finally, cells were washed and resuspended in FACS buffer for acquisition on a FACS Celesta flow cytometer.

Experiment [5] deals with T5, human CD200RLa extracellular domain fused to mouse CD80 transmembrane and intracellular tail, on HEK293T cells (human; mouse, UniProt Q6Q8B3 24-239; Q00609 247-306, limits assumed).
T5 construct: extracellular domain;domain: transmembrane and intracellular tail; also called human CD200RLa chimeric construct
T5 sequence (looked up): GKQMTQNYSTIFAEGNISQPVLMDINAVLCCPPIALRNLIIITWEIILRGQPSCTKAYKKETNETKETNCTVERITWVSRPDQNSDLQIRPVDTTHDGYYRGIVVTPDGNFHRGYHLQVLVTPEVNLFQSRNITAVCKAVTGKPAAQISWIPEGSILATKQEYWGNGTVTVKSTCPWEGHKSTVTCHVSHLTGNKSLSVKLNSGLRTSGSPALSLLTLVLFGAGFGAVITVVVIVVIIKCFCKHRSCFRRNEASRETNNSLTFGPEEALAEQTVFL
Described as above. The protocol:
as §3, §4, §5

For experiment [6], the target named is T6, extracellular domain of cyno CD200R (SinoBiological 11232-C08H, Met1-Leu267) (cynomolgus, UniProt G7NZT0 25-268).
T6 construct: range 1-267; Bought protein
T6 sequence: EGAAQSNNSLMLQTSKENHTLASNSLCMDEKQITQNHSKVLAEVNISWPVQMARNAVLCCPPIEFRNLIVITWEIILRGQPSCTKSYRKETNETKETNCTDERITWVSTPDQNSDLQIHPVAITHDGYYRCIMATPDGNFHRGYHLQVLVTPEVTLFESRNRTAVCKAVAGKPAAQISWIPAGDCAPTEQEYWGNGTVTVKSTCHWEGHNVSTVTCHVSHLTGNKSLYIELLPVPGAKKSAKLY
Description: SPR (Biacore), antibody captured by anti-human Fc, CD200R extracellular domain injected, single cycle kinetics, 25 C. The protocol:
This example investigates in vitro CD200R binding of anti-CD200R antibodies by surface plasmon resonance. Surface plasmon resonance binding experiments with purified anti-CD200R antibody (expressed on a hIgG1 isotype with a P238D Fc mutation) were performed using the Biacore T200 and 8K+instruments. Anti-human Fc antibody (Life Technologies H10500) was amine-coupled to a C1 sensor chip using standard amine-coupling chemistry. Residual activated carboxyls were blocked with ethanolamine. Antibodies with a human Fc were then captured on these surfaces.
To assess the binding of hu2131_v20_D56S antibody and variants (antibody hu213l_Q1E and antibody hu2131_Q1E_M99G) to the extracellular domains of human CD200R (Met29-Leu243) and cyno CD200R (SinoBiological 11232-C08H, Metl-Leu267), 10-30 RUs of antibody were captured. CD200R proteins were diluted into running buffer (10 mM HEPES, 150 mM NaCl, 3 mM EDTA, 0.01% Polysorbate 20, pH 7.4 with 0.1 mg/mL BSA) (full-length antibody sequences are disclosed in Table 10). Five three-fold serial dilutions were performed for each CD200R, with highest concentration being 100 nM. Samples were injected using a single cycle kinetics scheme (Karlsson Anal Biochem et al 2006). Data were analyzed using Biacore Insight Evaluation Software and fit to a simple kinetic model, from which kon and koff were obtained to calculate KD using the relationship KD=koff/kon. Experiments were run at 25° C.

The target in experiment [7] is T3, cyno CD200RLa full length construct on …. Briefly: flow cytometry on transiently transfected HEK293T cells. The protocol: as §3, §4, §5
The target in experiment [8] is T2, monomeric soluble human CD200R …. Description: BLI (Octet), antibody on anti-human Fc probes, monomeric CD200R in solution, 25 C, 1:1 global fit. The method, then:
Humanised variant antibodies combining the different heavy and light variable domains described in Example 6 were produced by transient transfection of HEK293 cells. All antibodies were expressed on a human IgGI isotype with a P238D Fc mutation. The unpurified supernatants were analysed by Protein A-HPLC to determine the antibody concentrations, as a measure of expression yield. […] Binding affinity of humanized variants to human CD200R was assessed by bio-layer interferometry on an Octet R4 instrument. Each antibody was captured directly onto anti-human Fc capture probes (Sartorius 18-5060) for 60 sec followed by baseline setting in assay buffer (DPBS, 0.01% Polysorbate-20). Association of monomeric CD200R protein to immobilised antibodies was measured in 4 different protein concentrations (300, 100, 30 and 10 nM in assay buffer) at 25° C., with an association time of 120s and dissociation of 120s in assay buffer only. A reference probe with no antibody immobilised was used for background subtraction. Kinetic rate constants and binding KDs were calculated using Octet Analysis Studio 12 software. Global curve fitting based on all 4 concentrations using a 1:1 model was performed, from which kon and koff were obtained to calculate KD using the relationship KD=koff/kon.
For orientation: BLI is a label-free optical method that tracks binding on a fibre tip over time.

B1: anti-CD200R antibody clone 21.3.1 (mIgG1k isotype) (antibody, V domains shown)
VH: QVQLQQPGSELVRPGASVKLSCKASGHTFTSYWMHWVKQRPGQGLEWIGNIYPGSGSINYDEKFKSKAKLTVDTSSRTAYMQLSSLTSEDSAVYYCLTMTGTSWGQGTLVTVSA
VL: DVQMIQSPSSLSASLGDIVTMTCQASQGTPINLHWFQQKPGKAPKLLISGASNLEDGVPSRFSGSRYGTAFTLTISSLEDEDMATYFCLQFTYIPWTFGGGTKLEIKR
notes: Murine hybridoma antibody, IgG1 kappa
The term Kd denotes a measure of binding affinity in units of concentration. A low value points to tighter binding. On to B1, for which the Kd in experiment [1] was determined as 0.00825 nM; in experiment [2], 0.3 nM. In addition, the binding result is on record as “no binding” in experiment [3], “no binding (tested: 10 ug/ml)” in experiment [4] and “no binding (tested: 10 ug/ml)” in experiment [5].

B2: hu2131_v20_D56S hIgG1k P238D (antibody)
heavy: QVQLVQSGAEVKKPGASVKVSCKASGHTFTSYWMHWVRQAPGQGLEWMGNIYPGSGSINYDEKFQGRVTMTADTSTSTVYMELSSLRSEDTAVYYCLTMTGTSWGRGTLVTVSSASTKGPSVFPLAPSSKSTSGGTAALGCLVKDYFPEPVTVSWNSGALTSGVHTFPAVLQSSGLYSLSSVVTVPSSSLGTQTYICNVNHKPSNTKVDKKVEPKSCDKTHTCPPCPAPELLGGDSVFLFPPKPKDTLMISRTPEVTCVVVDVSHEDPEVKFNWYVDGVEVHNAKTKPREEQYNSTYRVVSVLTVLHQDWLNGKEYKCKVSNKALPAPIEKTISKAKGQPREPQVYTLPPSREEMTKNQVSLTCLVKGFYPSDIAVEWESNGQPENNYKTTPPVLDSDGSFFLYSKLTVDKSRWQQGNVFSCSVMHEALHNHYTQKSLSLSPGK
light: DIQMTQSPSSLSVSVGDRVTITCQASQGTPINLHWFQQKPGKAPKLLISGASNLESGVPSRFSGSGSGTEFTFTISSLQPEDAATYYCLQFTYIPWTFGQGTKLEIKRTVAAPSVFIFPPSDEQLKSGTASVVCLLNNFYPREAKVQWKVDNALQSGNSQESVTEQDSKDSTYSLSSTLTLSKADYEKHKVYACEVTHQGLSSPVTKSFNRGEC
notes: also called VH4/VL5-D56S
The term koff denotes a measure of how fast the partners let go of each other. A lower koff goes with slow dissociation. The term kon denotes a measure of how fast the partners come together. The low end stands for slow association, the high end for fast association. With B2, the Kd in experiment [6] stood at 0.041 nM; in experiment [8], 0.00206 nM. For the same molecule, in experiment [6], the koff was 1.06e-05 s⁻¹. The same molecule registered a kon in experiment [6] of 258000 M⁻¹ s⁻¹. Also, the binding result in experiment [4], in experiment [5] and in experiment [7] was “no binding (tested: 10 ug/ml)” in each case.
